{
  "source": "paper PMC12599251",
  "key": {"[1]": {"target": "Human Hsp90β (heat shock protein 90 beta), wild type (human) (UniProt P08238)", "assay": "AUC; sedimentation velocity, 42,000 rpm, 20°C, 11-15 uM protein, absorbance at 280 nm, continuous c(S) distribution (SEDFIT); peroxynitrite-treated samples dialyzed beforehand"}, "[2]": {"target": "Human Hsp90β (heat shock protein 90 beta), wild type (human) (UniProt P08238)", "assay": "native gel or EMSA; native PAGE: 20 ug protein (1 mg/ml) on 4-20% polyacrylamide gels in native loading buffer (Tris pH 6.8, 50% glycerol); directly after purification and after incubation at 4°C or 25°C in PBS pH 7.4 for up to 48 h"}, "[3]": {"target": "Human Hsp90β treated with 0.5 mM peroxynitrite (human) (UniProt P08238)", "assay": "AUC; sedimentation velocity, 42,000 rpm, 20°C, 11-15 uM protein, absorbance at 280 nm, continuous c(S) distribution (SEDFIT); peroxynitrite-treated samples dialyzed beforehand"}, "[4]": {"target": "Human Hsp90β with 3-nitrotyrosine at position 33 (human) (UniProt P08238)", "assay": "AUC; sedimentation velocity, 42,000 rpm, 20°C, 11-15 uM protein, absorbance at 280 nm, continuous c(S) distribution (SEDFIT); peroxynitrite-treated samples dialyzed beforehand"}, "[5]": {"target": "Human Hsp90β with 3-nitrotyrosine at position 33 (human) (UniProt P08238)", "assay": "AUC; sedimentation velocity, 42,000 rpm, 20°C, 11-15 uM protein, absorbance at 280 nm, continuous c(S) distribution (SEDFIT); peroxynitrite-treated samples dialyzed beforehand", "remark": "listed apart in the source"}, "[6]": {"target": "Human Hsp90β with 3-nitrotyrosine at position 33 (human) (UniProt P08238)", "assay": "native gel or EMSA; native PAGE: 20 ug protein (1 mg/ml) on 4-20% polyacrylamide gels in native loading buffer (Tris pH 6.8, 50% glycerol); directly after purification and after incubation at 4°C or 25°C in PBS pH 7.4 for up to 48 h"}, "[7]": {"target": "Human Hsp90β with 3-nitrotyrosine at position 56 (human) (UniProt P08238)", "assay": "AUC; sedimentation velocity, 42,000 rpm, 20°C, 11-15 uM protein, absorbance at 280 nm, continuous c(S) distribution (SEDFIT); peroxynitrite-treated samples dialyzed beforehand"}, "[8]": {"target": "Human Hsp90β with 3-nitrotyrosine at position 56 (human) (UniProt P08238)", "assay": "native gel or EMSA; native PAGE: 20 ug protein (1 mg/ml) on 4-20% polyacrylamide gels in native loading buffer (Tris pH 6.8, 50% glycerol); directly after purification and after incubation at 4°C or 25°C in PBS pH 7.4 for up to 48 h"}, "[9]": {"target": "Human Hsp90β with 3-nitrotyrosine at positions 33 and 56 (human) (UniProt P08238)", "assay": "AUC; sedimentation velocity, 42,000 rpm, 20°C, 11-15 uM protein, absorbance at 280 nm, continuous c(S) distribution (SEDFIT); peroxynitrite-treated samples dialyzed beforehand"}},
  "note": "Several values for one entry are separate records, joined by “and”; a condition that tells them apart may be missing. Equal entries are not always repeated.",
  "data": [
    {"substance": "Human Hsp90β (heat shock protein 90 beta), wild type, P08238 1-724 (natural protein; other documents disagree on this pair)", "values": [
      {"measurement": "stoichiometry N", "setting": "[1]", "value": 2},
      {"measurement": "stoichiometry N", "setting": "[2]", "value": 2}
    ]},
    {"substance": "Human Hsp90β treated with 0.5 mM peroxynitrite, P08238 1-724 (natural protein; nitration of Y33, Y56, Y276, Y484 and Y596 after treatment with 0.5 mM peroxynitrite; nitration of Y33, Y56, Y276, Y484 and Y596 after treatment with 0.5 mM peroxynitrite; other documents disagree on this pair)", "values": [
      {"measurement": "stoichiometry N", "setting": "[3]", "value": "2 and 4"}
    ]},
    {"substance": "Human Hsp90β with 3-nitrotyrosine at position 33, P08238 1-724 (natural protein; 3-nitrotyrosine at 33 (sole oxidative modification); 3-nitrotyrosine at 33 (sole oxidative modification); other documents disagree on this pair)", "values": [
      {"measurement": "stoichiometry N", "setting": "[4]", "value": 2},
      {"measurement": "stoichiometry N", "setting": "[5]", "value": 6},
      {"measurement": "stoichiometry N", "setting": "[6]", "value": 2}
    ]},
    {"substance": "Human Hsp90β with 3-nitrotyrosine at position 56, P08238 1-724 (natural protein; 3-nitrotyrosine at 56 (sole oxidative modification); 3-nitrotyrosine at 56 (sole oxidative modification); other documents disagree on this pair)", "values": [
      {"measurement": "stoichiometry N", "setting": "[7]", "value": 2},
      {"measurement": "stoichiometry N", "setting": "[8]", "value": 2}
    ]},
    {"substance": "Human Hsp90β with 3-nitrotyrosine at positions 33 and 56, P08238 1-724 (natural protein; 3-nitrotyrosine at 33 and at 56 (sole oxidative modifications); 3-nitrotyrosine at 33 and at 56 (sole oxidative modifications); other documents disagree on this pair)", "values": [
      {"measurement": "stoichiometry N", "setting": "[9]", "value": "2 and 6"}
    ]}
  ]
}
